Assay results taken from the DeepSol protein solubility set.

assay: soluble on expression in E. coli; label from the status in PepcDB or PDB records

Soluble on expression in E. coli, soluble:
MQAGPALMSEVASRELRNDTAGVLRRVRAGEDVTITVSGRPVAVLTPVRPRRRRWLSKTEFLSRLRGAQADPGLRNDLAVLAGDTTEDLGPIR
MNRVEPPYDVKEALVFTQKMAQLSKALWKSIEKDWQQWLKPYDLNINEHHILWIAYQLNGASISEIAKFGVMHVSTAFNFSKKLEERGYLRFSKRLNDKRNTYVQLTEEGTEVFWSLLEEFDPTRNAVFKGSQPLYHLFGKFPEVAEMMCMIRHIYGDDFMEIFETSLTNIDNDFESVNGKLKKKAKDSAADEPAEELEPVNS
KPAAHLIGDPSKQNSLLWRANTDRAFLQDGFSLSNNSLLVPTSGIYFVYSQVVFSGKAYSPKATSSPLYLAHEVQLFSSQYPFHVPLLSSQKMVYPGLQEPWLHSMYHGAAFQLTQGDQLSTHTDGIPHLVLSPSTVFFGAFAL
GQSRERLVKWLQDAYAMEKEAETMMAAMASRIEHYPELKRRIEQHVEETQQQSAGVQRCLELLNGSIPTAKGMLSSVLASMHAAGNSMMTDEVTKGVGISYAFEHLEIASYRALVVAARSAGEQEVAQICEDILQQEIEMAEWLIEHQEAIVVAFLEREQLEGVGS
MSLNKKIILLADDDRDDIEMFCEALEMVNENVICECAENGDQAWRMLNDNNEKPQLIFLDINMPIMNGWECLKLIKKDENYQDIPVIMISTSSHKNDMETASKLGALGYFVKPNDFNDLKSMLKIITSNEGTDEGHHHHHH
MGIFDFLSGQFIDVIHWTDDTRDTMVWRFEREGHEIKYGAKLTVREGQSAVFVHEGQLADVFTPGLYMLETNNMPILTTLNHWDHGFRSPFKSEIYFVNTTRFNNLKWGTKNPIMLRDPEFGPTRIRAFGTYSVRVTDPARFLSEIVGTDGEFTMDEISFQIRNIIVQEFSRVIAASGIPVLDMAANTADLGKLIAAQVALPLTEYGLEMPEFYIENISLPPAVEAALDKRTSMGLAGDLGKFTQYSAAEAMTAAATNPAGGGMAAGLGAGMGMAMAQQMAQPGPWGAAPASRHAAPPPPPVEHVWHVAVDGQTSGPFSKAKMGRMAAEGEITRDTYVWTPGQDGWKRAEDVRELAQLFTILPPPPPPPGALEHHHHHH
MSLKNLPIGGVWKGKVKLHSNSPAQDYFANITLNTLDPNHIDVFFPEFAHATPRVQLDLHPTGSVNGSNYAQDLTMLDMCLYDGFNGNAISYEIMLKDEGRPAAGRRDGYFSIYRQGGTTTDEGERIDYRVKMYNPETGGQIDVRNNENMVWNSINLKRVRPVVLPGIRYAVMCVPTPLTLAVDKFSVMDKQAGYYMGKLSVIFTPSLPTINEGHHHHHH
MDYEKTLLMPKTDFPMRGGLPNKEPQIQEKWDAEDQYHKALEKNKGNETFILHDGPPYANGNLHMGHALNKILKDFIVRYKTMQGFYAPYVPGWDTHGLPIEQALTKKGVDRKKMSTAEFREKCKEFALEQIELQKKDFRRLGVRGDFNDPYITLKPEYEAAQIRIFGEMADKGLIYKGKKPVYWSPSSESSLAEAEIEYHDKRSASIYVAFNVKDDKGVVDADAKFIIWTTTPWTIPSNVAITVHPELKYGQYNVNGEKYIIAEALSDAVAEALDWDKASIKLEKEYTGKELEWVVAQHPFLDRESLVINGDHVTTDAGTGCVHTAPGHGEDDYIVGQQYELPVISPIDDKGVFTEEGGQFEGMFYDKANKAVTDLLTEKGALLKLDFITHSYPHDWRTKKPVIFRATPQWFASISKVRQDILDAIENTNFKVNWGKTRIYNMVRDRGEWVISRQRVWGVPLPVFYAENGEIIMTKETVNHVADLFAEHGSNIWFEREAKDLLPEGFTHPGSPNGTFTKETDIMDVWFDSGSSHRGVLETRPELSFPADMYLEGSDQYRGWFNSSITTSVATRGVSPYKFLLSHGFVMDGEGKKMSKSLGNVIVPDQVVKQKGADIARLWVSSTDYLADVRISDEILKQTSDDYRKIRNTLRFMLGNINDFNPDTDSIPESELLEVDRYLLNRLREFTASTINNYENFDYLNIYQEVQNFINVELSNFYLDYGKDILYIEQRDSHIRRSMQTVLYQILVDMTKLLAPILVHTAEEVWSHTPHVKEESVHLADMPKVVEVDQALLDKWRTFMNLRDDVNRALETARNEKVIGKSLEAKVTIASNDKFNASEFLTSFDALHQLFIVSQVKVVDKLDDQATAYEHGDIVIEHADGEKCERCWNYSEDLGAVDELTHLCPRCQQVVKSLV
SNAMKEALATGSEAWWRTKTGPEWIREKDGNYRVTFWWRDPQGNETHSPIRRVWVYITGVTDHHQNAQPQTMARIAGTDVWRWSTALSANWRGSYCFIPTERDDVFAAFAPGETPDRNVLREGWRQLLPQAIADPLNSQSWRGGRGHAVSALEMPDAPLQPGWDRPETPYSPPLMMQWHSERLGNSRRVWILTTGDEAPEERPLAILLDGQFWAENMPVWPALASLTHQRLLPGAVYLLIDAIDTQHRSQELPCNADFWLAVQQELLPQVRAVTPFSDDAGRTVVAGQSFGGLSALYAGLNWPTRFGCVLSQSGSFWWPHRITPPEGEVITRLKTGALCARGLRIVLEAGVREPIVFQANQALYAQLNTSQQSIFWRQVDGGHDALCWRGGLTQGLMLLWQPLIDTL

Soluble on expression in E. coli, not soluble:
MGSDKIHHHHHHMIASKSKQLVYNGRFTTQKTTGVQRVARELIAALIKFQPQDPVTVLVPPRPGVAVSGAKTVEVGFYKGVVWEQLILPLFARRGRIVNLGNSASIFLGNQIIYMHDAAVFDTPAHFSRPFRVWYRIMFWILARTSVCVLTNSRFSRDRLAHHCGVSAEKIRVVPLGADHLDALEPDTSVLDKHALTPDRFVLAVSSMNPTKNFGRLIAAFRQIGDPSVDLVIVGMQNTTVFGKHDPVGAPEPNIKYVGYISDEQLKALYQNAACFLYPSIYEGFGIPPLEAMRYGCPALVGKSAALPEVCADAALYCDPYSQDDIARKLRSLLDSPELRAELKRKGIAHAEQYRWSRSAEMMKAIFETL
MTNQNLQDFLDGVLLKEENLNKITEVSLEKGLPHLLDEGIHNEDNFQIFTSQKIVADMIKMVGVKEMKNVHTTVLEPTSGDGAFTCAILDLRLKNIKKSDSFLKEALTGLSTIYSVEIDEELVWLQRNNLYSIFLAFLKKHGIFNEELSLLVKKILMINVSWGELITETKDNENFVCNYDYFLRNKKTKKKPAKHKHEFPEGLFSNGEGKCKSLFVNWSFADVINEIAHNSNFYFAKIAKIPGEIIQFQIN
MGHHHHHHSHDGAEPGRVDTFWYKFLKREPGGELSWEGNGPHHDRCCTYNENNLVDGVYCLPIGHWIEATGHTNEMKHTTDFYFNIAGHQAMHYSRILPNIWLGSCPRQVEHVTIKLKHELGITAVMNFQTEWDIVQNSSGCNRYPEPMTPDTMIKLYREEGLAYIWMPTPDMSTEGRVQMLPQAVCLLHALLEKGHIVYVHCNAGVGRSTAAVCGWLQYVMGWNLRKVQYFLMAKRPAVYIDEEALARAQEDFFQKFGKVRSSVCSL
TQYKYAWIINGLTKSTGETYIPTAADDGFNIRLEVTGQDAYGQVTEMQYVVYAFSKVETIFSDMYAFAALKTDGSVVTWGYSDYGGDSSSVAGQLTSGVKVIDSTSSAFAAIKEDGSVVTWGDSPYGGDSSSVAGKLTSGVKVIYSNSSAFAAVKQDGSVVTWGSYGGDSSSVAGQLTSGVKVIYSTDSEFGAFAAVKEDGSVVTWGNSPYGGDSSSVAGQLTSGVKVIYSTNNAFAAVKEDGSVVTWGDSGAGGDSSSVAGQLTSGVKVIYSTNNAFAAVKEDGSVVTWGGYGGDSSSVAGQLTSGVKVIYSTNNAFAAVKEDGSVVTWGDSGNGGDSSSVAGQLTSGVKVIDSTYSAFAAVKEDGSVVAWGNSGYGGDSSSVAGQLTSGVKVIDSTTSAFAVVKEDGSVVTWGGSFYGGDSSSVAGQLTSGVKVIYSTSSAFAVVKEDGSVVTWGGSFYGGDSSSVADKLAPNLFLIETSIN
MGSDKIHHHHHHMEILSVGEKIKRARIYKRLTLKDICDDKVSVSKMSCIENGKITPDNEILEFVAKKLNVALDYLKYDVKDQFQSNLDNLKDIEEGKKDEYLRYNVYYAEQYEYYDIAFQFMHELFNLYVNKNKLDIVQSLTSEYYDICRKVTDCDNRSMYNLDIGKYLLASREYRQAINYYSRVRKELKTGFSENKKRIKMLIESYYYETLSYILCEDYDNAYELEKELLELIEYVDTDNQHAKIYSVMMFLCLKKNIDQFDYYKEKIENYCDINSEIKARVMYVCALKMINDEKVEEAKGYIAKALEQFQGKIENKYIPFIVELVNEVSRRNNLERYRGICDLILDYSIGIENSVLMERCYYLKSRIFKASNDLESYEMYMNLALDLLIKSGNEDDIYTRYMEMGNMYSTLGNVKDALRYFNLAINMSNKM
MKSNKSKYKLVVDYVIDGINEGRLKKGAWIPSLNEFREMYGLSRDTVFSGIRELKSRGIIKSNPGVGYYIVSTRVPFKHNIFLLFNEFNEFKEDIYNSFMETVGNSATVDLYFHNYNRKVFETLVNNANHKYTTYIIMSGKFADIGPLLESLSGNVFLLDHYHSELKGKYSSVFQNFEKDTYEALVYGLSNLRKYKHIVMVQKDSKEPFERYDGLRAFCKEHGFTHECIGEIQGREIVKQEVFMVVNDRDLVNLLKQADRQQLVPGKDFGIISYNDTPLKEVLAGGITTLSTDFKLMGRTMASLINKKTIETIENPWNLNIRNSL
MNALLVMTGLAAAASGRIGAACSALLGGGAVRGRSAGASGDEAQAQDADSSPEADRLEDVSPSGAFAGVIAALEVQAPVRDVPPPTDDLANEGEDIARSRVAATAADAVTSGGAARSPRDALGGLAFGQSPMIEAGKALYVSPVRDDERLRNGERFRDGERLRDGADGARAGMRDAASAAGAASTSRVGQPGAGAPRDQQALSQSPGQQAADKPPAGAPGPQEGTIGAPVDMPRAAARAHSPQSAPVRLGAELMSVLGERIDVQLQRGVERAVIRLDPQSMGTLHIAIRHEGGSVQIQMIASHEEVARQLQTMSEALRQDLSSRHHGDVTVVVRHGQGMEQGAGHGEGGAHREEKRPGAALAEADVPDGDDGFRLDGRDVI
MGSDKIHHHHHHMILSDPRFVALSNWLYQYFGDKVAINLICGDASFRRYFRLHHQGIDYIVSDSPIDLVPIAPFLAMAKAYQHAGLLVPEVLATCNDYGFVLQTDVGELQLLSVLNKDNVTDYYKQALNLLPVIATVTETDNGPLADYDDTFVARELAIFVDWLLKEHLDYVLTDNEQQMIATTFSALTDNVLAQPKVGMHRDYHSRNLLINDQALAVIDFQDAVHGPVTYDAVSLLRDCYVRWPDDIVNHLMRYHYQLAIAHQLIDENVDFATYTKWFDLMGLQRHIKAAGIFARLYHRDGKRGYLADIPLTLQYVADIGIKYPQIADFSLWIHKVILPLVNHKNTHEVVSEA
MGSDKIHHHHHHMAPRGNQMLGNAHFRKHWHKRIKTWFDQPARKLRRRQNRQAKAVEIAPRPVAGLLRSVVRCPQKRYNTKTRLGRGFSLQELKAAGISQAQARTIGIAVDVRRTNKTAEGLKANADRLKEYKAKLILFPKKASAPKKGDSSAEELKVAAQLRGDVLPLSHTITFDEPRQVTDAERKVEIFRLLRKERADKKYRGKREKRAREAAEENK
ITEEEAKLFTEQLGDIIQFAEQLNELDTEGVEPTSHVLDMKNVLREDKPEKGLPVEDVLKNAPDHEDGQIR
VFADKLDITVDQKKIILPYWLSRPVSYGAVIIVSGGETAQWSLLLEQFAKGLARNGWSVVLLNCTKNNSIPWINQLPEVISTLRQNNNKRIVLVHYGDQLNLALEYFSKPQSKMINGLVMLSAYDLNRNLQKVPRLRFPLFDIVGQFDYDMVRQQRKSREEKFKENSYLAIDIPGATHDYQYSQQLLLAFVHGWM
